# Article PMC13013481
# Target: RSV G central conserved cysteine-rich region peptide (Gpep, residues 149-196) (respiratory syncytial virus strain A2)
# Experiment: Tricine SDS-PAGE, non-reducing and reducing; 16% Tricine SDS-PAGE of concentrated Gpep, with or without β-mercaptoethanol and with or without heat denaturation
substance,measurement,value
"RSV G central conserved cysteine-rich region peptide (Gpep, residues 149-196)",stoichiometry N,2
